Reference: US20250188166A1 (BRIGHT PEAK THERAPEUTICS, published 2025)
Positions count from the first letter of the chain named. Names may count otherwise. “And” between values parts separate entries of the source, which are not always exact repeats. Equal values may be shown once.

T1: IL-18R on HEK-Blue IL18R reporter cells (UniProt Q13478 19-541; O95256 20-599)
T1 sequence (looked up) 1: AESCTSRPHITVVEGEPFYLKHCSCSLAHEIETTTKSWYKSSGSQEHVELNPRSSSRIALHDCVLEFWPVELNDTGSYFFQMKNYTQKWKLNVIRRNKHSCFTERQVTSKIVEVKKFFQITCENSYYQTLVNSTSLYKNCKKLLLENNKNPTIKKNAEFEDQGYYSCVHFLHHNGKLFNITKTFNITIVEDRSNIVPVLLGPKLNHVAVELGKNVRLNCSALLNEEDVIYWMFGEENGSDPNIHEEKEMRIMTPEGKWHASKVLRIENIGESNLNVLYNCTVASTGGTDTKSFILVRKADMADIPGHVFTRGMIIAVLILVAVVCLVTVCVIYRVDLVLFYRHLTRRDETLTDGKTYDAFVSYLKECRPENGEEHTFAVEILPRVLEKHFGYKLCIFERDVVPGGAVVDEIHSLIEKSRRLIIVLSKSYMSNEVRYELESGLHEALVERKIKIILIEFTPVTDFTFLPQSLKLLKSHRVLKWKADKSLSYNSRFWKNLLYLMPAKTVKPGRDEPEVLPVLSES
T1 sequence (looked up) 2: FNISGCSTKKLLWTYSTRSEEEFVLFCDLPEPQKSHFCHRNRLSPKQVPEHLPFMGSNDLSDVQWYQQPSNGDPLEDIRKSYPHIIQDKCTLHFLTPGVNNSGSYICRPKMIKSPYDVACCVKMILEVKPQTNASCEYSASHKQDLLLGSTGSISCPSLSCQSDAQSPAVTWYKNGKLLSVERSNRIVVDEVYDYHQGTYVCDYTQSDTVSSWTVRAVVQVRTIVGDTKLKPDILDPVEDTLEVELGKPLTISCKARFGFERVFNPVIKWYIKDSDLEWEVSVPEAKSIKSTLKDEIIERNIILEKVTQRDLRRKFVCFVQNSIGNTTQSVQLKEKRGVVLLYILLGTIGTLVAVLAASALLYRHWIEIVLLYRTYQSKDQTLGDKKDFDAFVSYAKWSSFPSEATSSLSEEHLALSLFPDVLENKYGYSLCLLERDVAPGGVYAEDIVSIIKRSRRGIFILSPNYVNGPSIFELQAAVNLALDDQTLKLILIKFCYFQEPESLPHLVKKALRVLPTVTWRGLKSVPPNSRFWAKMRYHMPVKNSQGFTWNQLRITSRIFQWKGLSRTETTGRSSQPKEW

B1: IL-18 polypeptide C142 (ligand)
chain: MFGKLKSKLSIIRNLNDQVLFIDQGNRPLFEDMTDSDARDNAPRTIFIISMYADSQPRGMAVAISVKCEKISTLSAENKIISFKEMNPPDNIKDTKSDIIFFQRSVPGHDNKMQFESSSYEGYFLAAEKERDLFKLILKKEDELGDRSIMFTVQNED
B2: IL-18 polypeptide C143 (ligand)
chain: B1 chain with M1Y, K6E, A63T
B3: IL-18 polypeptide C144 (ligand)
chain: B1 chain with M1Y, K6E
B4: IL-18 polypeptide C145 (ligand)
chain: B1 chain with M1Y, K6E, S55A, A63T
B5: IL-18 polypeptide C146 (SEQ ID NO: 68) (ligand)
chain: B1 chain with M1Y, K6E, M51G, A63T
B6: IL-18 polypeptide C147 (ligand)
chain: B1 chain with M1Y, K6E, D54A, A63T
B7: IL-18 polypeptide C148 (ligand)
chain: B1 chain with M1Y, F2A, K6E, A63T
B8: IL-18 polypeptide C149 (ligand)
chain: B1 chain with M1Y, K6E, E31A, A63T
B9: IL-18 polypeptide C150 (ligand)
chain: B1 chain with M1Y, K6E, T34A, A63T
B10: IL-18 polypeptide C151 (ligand)
chain: B1 chain with M1Y, K6E, D35A, A63T
B11: IL-18 polypeptide C152 (ligand)
chain: B1 chain with M1Y, K6E, S36A, A63T
B12: IL-18 polypeptide C153 (ligand)
chain: B1 chain with M1Y, K6E, D37A, A63T
B13: IL-18 polypeptide C154 (ligand)
chain: B1 chain with M1Y, K6E, E31A, D37A, A63T
B14: IL-18 polypeptide C155 (ligand)
chain: B1 chain with M1Y, K6E, D40A, A63T
B15: IL-18 polypeptide C156 (ligand)
chain: B1 chain with M1Y, K6E, N41A, A63T
B16: IL-18 polypeptide C157 (ligand)
chain: B1 chain with M1Y, K6E, A63T, D132A
B17: IL-18 polypeptide C158 (ligand)
chain: B1 chain with M1Y, K6E, A63T, G108A
B18: IL-18 polypeptide C159 (ligand)
chain: B1 chain with M1Y, K6E, A63T, H109A
B19: IL-18 polypeptide C160 (ligand)
chain: B1 chain with M1Y, K6E, A63T, D110A
B20: IL-18 polypeptide C161 (ligand)
chain: B1 chain with M1Y, K6E, K8R, A53K, A63T, Q103E
B21: IL-18 polypeptide C162 (ligand)
chain: B1 chain with M1Y, K6E, K8E, A53K, A63T, Q103R
B22: IL-18 polypeptide C163 (ligand)
chain: B1 chain with M1Y, K6E, A53K, A63T, Q103K
B23: IL-18 polypeptide C164 (ligand)
chain: B1 chain with M1Y, K6E, A53K, S55H, A63T
B24: IL-18 polypeptide C165 (ligand)
chain: B1 chain with M1Y, K6E, A53K, S55R, A63T
B25: IL-18 polypeptide C166 (ligand)
chain: B1 chain with M1Y, K6E, A53K, S55T, A63T
B26: IL-18 polypeptide C167 (ligand)
chain: B1 chain with M1Y, K6E, A53K, A63T, S105I
B27: IL-18 polypeptide C168 (ligand)
chain: B1 chain with M1Y, K6E, A53K, A63T, S105K
B28: IL-18 polypeptide C174 (ligand)
chain: B1 chain with M1Y, K8L
B29: IL-18 polypeptide C176 (ligand)
chain: B1 chain with M1Y, I49M
B30: IL-18 polypeptide C177 (ligand)
chain: B1 chain with M1Y, I49R
B31: IL-18 polypeptide C178 (ligand)
chain: B1 chain with M1Y, Q103R
B32: IL-18 polypeptide C179 (ligand)
chain: B1 chain with M1Y, K8E, Q103R
B33: IL-18 polypeptide C181 (ligand)
chain: B1 chain with M1Y, V153E
B34: IL-18 polypeptide C182 (ligand)
chain: B1 chain with M1Y, V153Y
B35: IL-18 polypeptide C183 (SEQ ID NO: 69) (ligand)
chain: B1 chain with M1Y, M51G
B36: IL-18 polypeptide C184 (ligand)
chain: B1 chain with M1Y, K6R
B37: IL-18 polypeptide SEQ ID NO: 34 (E06K, K53A, S55A) (ligand)
chain: B1 chain with M1Y, I11V, A38C, S55A, A63T, A76C, A127C
B38: IL-18 polypeptide SEQ ID NO: 42 (E06K, K53A, S55A, T63A) (ligand)
chain: B1 chain with M1Y, I11V, A38C, S55A, A76C, A127C
B39: IL-18 polypeptide SEQ ID NO: 50 (E06K, K53A, T63A) (ligand)
chain: B1 chain with M1Y, I11V, A38C, A76C, A127C
B40: IL-18 polypeptide SEQ ID NO: 54 (E06K, K53A, C38S, C68S, C76S, C127S, K70C) (ligand)
chain: B1 chain with M1Y, I11V, A38S, A63T, C68S, K70C, A76S, A127S
B41: IL-18 polypeptide SEQ ID NO: 56 (E6K, K53A, C38S, C76S, C127S) (ligand)
chain: B1 chain with M1Y, I11V, A38S, A63T, A76S, A127S
B42: IL-18 polypeptide SEQ ID NO: 57 (E6K, C38S, K53A) (ligand)
chain: B1 chain with M1Y, I11V, A38S, A63T, A76C, A127C
B43: IL-18 polypeptide SEQ ID NO: 59 (E6K, C38A, K53A) (ligand)
chain: B1 chain with M1Y, I11V, A63T, A76C, A127C
B44: IL-18 polypeptide SEQ ID NO: 60 (E6K, C38Q, K53A) (ligand)
chain: B1 chain with M1Y, I11V, A38Q, A63T, A76C, A127C
B45: IL-18 polypeptide SEQ ID NO: 62 (E6K, C38A, K53A, C127A) (ligand)
chain: B1 chain with M1Y, I11V, A63T, A76C
B46: IL-18 polypeptide C140 (SEQ ID NO: 72) (ligand)
chain: GGGGYFGKLKSKLSIIRNLNDQVLFIDQGNRPLFEDMTDSDARDNAPRTIFIISMYADSQPRGMAVAISVKCEKISTLSAENKIISFKEMNPPDNIKDTKSDIIFFQRSVPGHDNKMQFESSSYEGYFLAAEKERDLFKLILKKEDELGDRSIMFTVQNED

Molecular target: T1, IL-18R on HEK-Blue IL18R reporter cells
Assay: cell-based or functional assay

Row | Binder | EC50, HEK-Blue IL18R SEAP reporter
1 | B1 | 0.02 pM
2 | B2 | 0.98 pM
3 | B3 | 0.17 pM
4 | B4 | 3.63 pM
5 | B5 | 0.8 pM
6 | B6 | 1 pM
7 | B7 | 7.28 pM
8 | B8 | 6.6 pM
9 | B9 | 0.7 pM
10 | B10 | 13.1 pM
11 | B11 | 0.25 pM
12 | B12 | 14.1 pM
13 | B13 | 11.9 pM
14 | B14 | 0.52 pM
15 | B15 | 11.7 pM
16 | B16 | 1.95 pM
17 | B17 | 15.6 pM
18 | B18 | 19.5 pM
19 | B19 | 2.02 pM
20 | B20 | 2.01 pM
21 | B21 | 2.3 pM
22 | B22 | 1.5 pM
23 | B23 | 3.14 pM

Row | Binder | EC50, HEK-Blue IL18R SEAP reporter
24 | B24 | 1.91 pM
25 | B25 | 4.73 pM
26 | B26 | 5.37 pM
27 | B27 | 7.73 pM
28 | B28 | 0.29 pM
29 | B29 | 0.07 pM
30 | B30 | 0.04 pM
31 | B31 | 0.26 pM
32 | B32 | 0.4 pM
33 | B33 | 0.1 pM
34 | B34 | 0.08 pM
35 | B35 | 0.1 pM
36 | B36 | 0.04 pM
37 | B37 | 272 pM
38 | B38 | 0.79 pM
39 | B39 | 1.77 pM
40 | B40 | 9.12 pM
41 | B41 | 3.73 pM
42 | B42 | 0.86 pM and 0.53 pM
43 | B43 | 0.268 pM
44 | B44 | 0.203 pM
45 | B45 | 0.17 pM
46 | B46 | 2.5 pM
